Data on five molecules can be found in patent US10500256B2, “Polymers for delivery of therapeutic proteins” (BOARD OF REGENTS, THE UNIVERSITY OF TEXAS SYSTEM, priority 2014, dated 2019).

In data set [1] the test system is Caco-2 monolayer. The following applies: cited from earlier work.
The conditions of data set [2]: in vivo absorption of compounds with similar Caco-2 permeability; cited from earlier work. (Passage across Caco-2 layers is used to estimate intestinal permeability.)
The nature of data set [3]: Loading and release of salmon calcitonin, urokinase and Rituxan from 1:2 P(IA-co-NVP) microparticles. It is filed as physicochemical. The following applies: 3 mol % TEGDMA; for Loading Level: protein loading solution 200 μg/mL; for Percent Release, t = 24 h / Protein Released, t = 24 h: t=0-1 h pH 3, then pH 7.4. The text has this: In an additional experiment, the loading and release of urokinase was also compared to that of sCT and rituximab using P(IA-co-NVP) microparticles synthesized with a monomer ratio of 1:2 IA to NVP. This experiment utilized urokinase as another high pI protein (pI=8.66) with a molecular weight (54.0 kDa) between that of salmon calcitonin (3.4 kDa) and rituximab (144 kDa), allowing us to see the effects across a range of sizes, rather than just two endpoints. Urokinase is used clinically as a thrombolytic agent for myocardial infarction, pulmonary embolism, and deep vein thrombosis.
This difference arises from two results. First, the hydrogels used in this experiment were crosslinked using 3 mol % TEGDMA in the monomer feed. […] Further, this experiment utilized loading solutions of proteins at only 200 μg/mL, rather than at 400 μg/mL as was used in the preceding experiment. […] With lower loading levels comes both lower overall delivery and lower percent release, as the lower loading level means less protein to be released even at 100% efficiency and, since concentration difference is the driving force for diffusion, less entropic gain due to diffusive release which therefore shifts the equilibrium toward coulombic binding rather than diffusive release.

Data set [4] concerns Caco-2 monolayer. As to the kind of experiment: Transport across Caco-2 monolayer (literature data). The following applies: over the 3 h average residence time, assuming constant permeability. It counts as in vitro ADME, human. An excerpt: Aside from limited delivery potential from the microparticle carriers, loss of bioavailability resulting from intestinal enzymatic degradation and low intestinal absorption should also be accounted for.

Regarding 1-deamino-8-D-arginine-vasopressin, the “Apparent permeability in Caco-2 cultures” value with Caco-2 monolayer [1] (Caco-2) is 1.3×10^−7.
As to `COc1cccc2c1C(=O)c1c(O)c3c(c(O)c1C2=O)C[C@@](O)(C(=O)CO)C[C@@H]3O[C@H]1C[C@H](N)[C@H](O)[C@H](C)O1` [doxorubicin], in data set [2], the Absorption is reported as 5%.
As to Urokinase, in data set [3], the “Loading Level” value amounted to 19.0 ± 1.1 μg/mg hydrogel; the “Percent Release, t = 24 h” value came out at 14.2 ± 3.2%; the “Protein Released, t = 24 h” value is given as 2.7 ± 0.5 μg/mg hydrogel. Moreover, the “Loading Level” value in data set [3] (listed as urokinase) stood at 19.0 μg/mg hydrogel.
Take `CC(C)C[C@H](NC(=O)[C@H](CCCCN)NC(=O)CNC(=O)[C@H](CC(C)C)NC(=O)[C@@H](NC(=O)[C@@H]1CSSC[C@H](N)C(=O)N[C@@H](CO)C(=O)N[C@@H](CC(N)=O)C(=O)N[C@@H](CC(C)C)C(=O)N[C@@H](CO)C(=O)N[C@@H]([C@@H](C)O)C(=O)N1)C(C)C)C(=O)N[C@@H](CO)C(=O)N[C@@H](CCC(N)=O)C(=O)N[C@@H](CCC(=O)O)C(=O)N[C@@H](CC(C)C)C(=O)N[C@@H](Cc1c[nH]cn1)C(=O)N[C@@H](CCCCN)C(=O)N[C@@H](CC(C)C)C(=O)N[C@@H](CCC(N)=O)C(=O)N[C@H](C(=O)N[C@@H](Cc1ccc(O)cc1)C(=O)N1CCC[C@H]1C(=O)N[C@@H](CCCNC(=N)N)C(=O)N[C@H](C(=O)N[C@@H](CC(N)=O)C(=O)N[C@H](C(=O)NCC(=O)N[C@@H](CO)C(=O)NCC(=O)N[C@H](C(=O)N1CCC[C@H]1C(N)=O)[C@@H](C)O)[C@@H](C)O)[C@@H](C)O)[C@@H](C)O` [Salmon Calcitonin]: the “Fraction expected to be transported across the intestinal epithelium” value with Caco-2 monolayer [4] was 0.15%. Moreover, the “Fraction transported across a Caco-2 monolayer” value in the data set on Caco-2 monolayer [1] (in vitro, over 60 min, Youn et al. (2006)) is reported as 0.05%.
For “Rituxan: large monoclonal antibody rituximab (144 kDa)”, in data set [3], the “Loading Level” value was 24.1 ± 1.5 μg/mg hydrogel; the “Percent Release, t = 24 h” value is 20.0 ± 3.6%; the “Protein Released, t = 24 h” value turned out to be 4.8 ± 1.1 μg/mg hydrogel. In addition, the “Loading Level” value in data set [3] (listed as rituximab) was 24.1 μg/mg hydrogel.
